Assay results from patent US20250163161A1 (TECHNISCHE UNIVERSIT T DARMSTADT, published 2025).
Like-named read-outs stand apart in the source and are kept apart here. Blank lines part the entries; values can stand above or below the binder they belong to.

Key:
[1] = molecular target: 273-621 (human, UniProt P00533); assay: flow cytometry on yeast cells displaying truncated EGFR fragments; detection with goat anti-human Fc PE
[2] = molecular target: 294-543 (human, UniProt P00533); assay: as above
[3] = molecular target: 475-621 (human, UniProt P00533); assay: as above
[4] = molecular target: PD-L1 on cells (A431; cells of the Promega PD-L1 blockade assay kit) (UniProt Q9NZQ7 19-290); assay: cell-based or functional assay
Chain of PD-L1 on cells (A431; cells of the Promega PD-L1 blockade assay kit) (Q9NZQ7 19-290): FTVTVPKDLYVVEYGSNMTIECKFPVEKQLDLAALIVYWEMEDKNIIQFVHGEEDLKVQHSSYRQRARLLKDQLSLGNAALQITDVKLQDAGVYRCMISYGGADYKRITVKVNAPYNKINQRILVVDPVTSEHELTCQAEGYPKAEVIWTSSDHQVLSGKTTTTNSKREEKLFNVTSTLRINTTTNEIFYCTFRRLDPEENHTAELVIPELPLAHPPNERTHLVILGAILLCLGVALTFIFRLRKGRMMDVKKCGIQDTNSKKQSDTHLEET

[5] = molecular target: T1, epidermal growth factor receptor (EGFR), soluble, as used in BLI (UniProt P00533 25-645); assay: BLI
T1 construct: extracellular domain; also called EGFR-ECD

[6] = molecular target: T2, programmed death-ligand 1 (PD-L1), soluble, as used in BLI (UniProt Q9NZQ7 19-238); assay: BLI
T2 construct: extracellular domain; also called PD-L1-ECD
T2 sequence (Q9NZQ7 19-238): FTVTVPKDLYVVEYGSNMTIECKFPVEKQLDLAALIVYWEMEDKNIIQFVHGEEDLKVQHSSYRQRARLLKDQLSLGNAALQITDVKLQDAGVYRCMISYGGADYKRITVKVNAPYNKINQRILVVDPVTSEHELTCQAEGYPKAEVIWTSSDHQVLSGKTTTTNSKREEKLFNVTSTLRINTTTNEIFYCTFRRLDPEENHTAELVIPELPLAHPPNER

[7] = molecular target: T3, EGFR and PD-L1 on EGFR/PD-L1 double positive A431 cells (UniProt P00533 25-1210; Q9NZQ7 19-290); assay: flow cytometry on EGFR/PD-L1 double-positive A431 cells, anti-human Fc PE detection
T3 construct: whole, on cells; Two separate cell-surface proteins, not a complex; also called A431 (EGFR+/PD-L1+)

[8] = molecular target: T1, epidermal growth factor receptor …; assay: BLI; remark: listed apart in the source
[9] = molecular target: T2, programmed death-ligand 1 (PD-L1), …; assay: BLI; remark: listed apart in the source
[10] = molecular target: T4, IL-6R on cells (THP-1, A549) (UniProt P08887 20-468, limits assumed); assay: flow cytometry on THP-1 cells; legend: - represents no significant binding
T4 construct: whole, on cells; also called THP-1 (IL-6R+/PD-L1+)
T4 sequence (looked up): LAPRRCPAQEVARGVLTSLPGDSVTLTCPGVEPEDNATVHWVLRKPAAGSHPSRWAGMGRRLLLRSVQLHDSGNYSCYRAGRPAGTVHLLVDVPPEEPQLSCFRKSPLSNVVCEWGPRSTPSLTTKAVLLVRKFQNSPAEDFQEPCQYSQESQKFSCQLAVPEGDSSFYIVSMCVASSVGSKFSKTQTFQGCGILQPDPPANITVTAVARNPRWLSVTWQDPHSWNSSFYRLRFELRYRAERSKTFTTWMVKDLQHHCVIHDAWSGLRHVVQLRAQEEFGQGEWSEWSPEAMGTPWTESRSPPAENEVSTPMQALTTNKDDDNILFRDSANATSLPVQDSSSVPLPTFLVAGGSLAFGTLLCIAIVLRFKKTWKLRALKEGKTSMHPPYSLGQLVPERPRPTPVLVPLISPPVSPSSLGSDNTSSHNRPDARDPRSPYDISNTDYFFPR

[11] = molecular target: T3, EGFR and PD-L1 on EGFR/PD-L1 double …; assay: flow cytometry on A431 cells
[12] = molecular target: T5, His6-PD-L1-TS (soluble, monomeric PD-L1) (UniProt Q9NZQ7 19-238); assay: BLI, antibody on AHC biosensors
T5 construct: not shown: TwinStrepII tag (TS)
T5 sequence (Q9NZQ7 other isoform, or with tags, fused parts or gaps): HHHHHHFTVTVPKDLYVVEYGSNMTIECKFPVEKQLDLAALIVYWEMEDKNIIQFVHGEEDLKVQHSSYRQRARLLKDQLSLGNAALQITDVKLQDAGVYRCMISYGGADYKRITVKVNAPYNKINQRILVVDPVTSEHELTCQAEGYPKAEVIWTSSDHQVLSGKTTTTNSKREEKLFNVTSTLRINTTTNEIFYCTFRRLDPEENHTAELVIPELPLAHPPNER

[13] = molecular target: T6, His6-EGFR-TS (soluble, monomeric EGFR) (UniProt P00533 25-645); assay: BLI, antibody on AHC biosensors
T6 construct: not shown: TwinStrepII tag (TS)

[14] = molecular target: T7, soluble IL-6R (sIL-6R-TS) (UniProt P08887 20-358); assay: BLI simultaneous binding; antibody on AHC biosensors; 200 nM IL-6R, then 500 nM EGFR, then 500 nM PD-L1, 300 s each
T7 construct: not shown: TwinStrepII tag (TS)
T7 sequence (looked up): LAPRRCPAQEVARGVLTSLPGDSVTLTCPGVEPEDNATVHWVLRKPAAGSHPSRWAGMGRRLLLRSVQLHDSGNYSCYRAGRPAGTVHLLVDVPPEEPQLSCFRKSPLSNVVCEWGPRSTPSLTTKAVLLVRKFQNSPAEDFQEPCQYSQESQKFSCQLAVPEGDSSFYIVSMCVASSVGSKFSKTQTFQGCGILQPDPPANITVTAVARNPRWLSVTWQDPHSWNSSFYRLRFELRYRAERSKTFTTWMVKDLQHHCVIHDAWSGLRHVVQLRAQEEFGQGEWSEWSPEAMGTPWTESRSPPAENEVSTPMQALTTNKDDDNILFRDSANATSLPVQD

[15] = molecular target: T3, EGFR and PD-L1 on EGFR/PD-L1 double …; assay: flow cytometry; Jurkat cells with antibody mixed with Calcein AM-stained A431 cells; anti-human Fc PE detection; Q2 = PE-positive Calcein-stained A431 events; Neg Ctrl Q2 0.13
[16] = molecular target: T8, CD3 (CD3ε) on cells (Jurkat; TCR/CD3 effector cells) (UniProt P07766 23-207, limits assumed); assay: flow cytometry; Jurkat cells with antibody mixed with Calcein AM-stained A431 cells; anti-human Fc PE detection; Q3 = CD3-binding on Jurkats
T8 construct: whole, on cells; that number is the CD3ε entry; also called Jurkat (CD3+)
T8 sequence (P07766 23-207 limits assumed): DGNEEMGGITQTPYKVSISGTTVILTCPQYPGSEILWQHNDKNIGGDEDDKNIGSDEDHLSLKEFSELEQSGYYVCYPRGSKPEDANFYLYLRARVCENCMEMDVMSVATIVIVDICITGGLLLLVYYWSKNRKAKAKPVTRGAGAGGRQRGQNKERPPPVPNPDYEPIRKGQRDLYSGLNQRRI

[17] = molecular target: T7, soluble IL-6R (sIL-6R-TS); assay: BLI, antibody on AHC biosensors

B1: HCP-LCE (heavy chain PD-L1-light chain EGFR) Two-in-One antibody (bispecific antibody, human IgG1, lambda, L234A L235A, V domains shown)
VH: AVTLDESGGGLQTPGGALSLVCKASGFDFSSYDMAWVRQAPGKGLEWVAGIKSNGPWTNYGAAVKGRATISRDNGQSTVRLQLNNLRAEDTAIYYCAKPGAGYVGWDAAGTIDSWGHGTEVIVSS
VL: ALTQPSSVSANLGETVKITCSGGAYSDCGWYQQKSPGSAPVTVIYYNDKRPSDIPSRFSGSTFGSTATLTITGVQAEDEAVYYCGGYDSRTGYVGVFGAGTTLTVLG
notes: Symmetric full-length IgG; heavy chain is the ICI2 heavy chain, lambda CL; also called 2in1
binding result [1]: no binding | binding result [2]: no binding | binding result [3]: no binding | EC50, cell-based PD-1/PD-L1 blockage assay (luciferase activity) [4]: 214 nM | Kd [5]: 236 nM | koff [5]: 0.0981 s⁻¹ | kon [5]: 415000 M⁻¹ s⁻¹ | Kd [6]: 78.3 nM | koff [6]: 0.0762 s⁻¹ | kon [6]: 973000 M⁻¹ s⁻¹ | EC50 [7]: 1.37 nM | Kd [8]: 236 nM | Kd [9]: 78.3 nM

B4: (αCD3ε)K(αIL-6R)+H(αIL-6R) TriTECM (bispecific antibody)
heavy 1: not shown
heavy 2: AVTLDESGGGLQTPGGALSLVCKASGFDFSSYDMAWVRQAPGKGLEWVAGIKSNGPWTNYGAAVKGRATISRDNGQSTVRLQLNNLRAEDTAIYYCAKPGAGYVGWDAAGTIDSWGHGTEVIVSSASTKGPSVFPLAPSSKSTSGGTAALGCLVKDYFPEPVTVSWNSGALTSGVHTFPAVLQSSGLYSLSSVVTVPSSSLGTQTYICNVNHKPSNTKVDKRVEPKSCDKTHTCPPCPAPEAAGGPSVFLFPPKPKDTLMISRTPEVTCVVVDVSHEDPEVKFNWYVDGVEVHNAKTKPREEQYNSTYRVVSVLTVLHQDWLNGKEYKCKVSNKALPAPIEKTISKAKGQPREPQVYTLPPSREEMTKNQVSLSCAVKGFYPSDIAVEWESNGQPENNYKTTPPVLDSDGSFFLVSKLTVDKSRWQQGNVFSCSVMHEALHNRFTQKSLSLSPGGSHHHHHHGGGGSGGGGSGGGGSSEVQLVESGGGLVQPGRSLRLSCAASRFTFDDYAMHWVRQAPGKGLEWVSGISWNSGRIGYADSVKGRFTISRDNAENSLFLQMNGLRAEDTALYYCAKGRDSFDIWGQGTMVTVSSAGGGGSGGGGSGGGGSSDIQMTQSPSSVSASVGDRVTITCRASQGISSWLAWYQQKPGKAPKLLIYGASSLESGVPSRFSGSGSGTDFTLTISSLQPEDFASYYCQQANSFPYTFGQGTKLEIKR
light: ALTQPSSVSANLGETVKITCSGGAYSDCGWYQQKSPGSAPVTVIYYNDKRPSDIPSRFSGSTFGSTATLTITGVQAEDEAVYYCGGYDSRTGYVGVFGAGTTLTVLGQPKANPTVTLFPPSSEELQANKATLVCLISDFYPGAVTVAWKADGSPVKAGVETTKPSKQSNNKYAASSYLSLTPEQWKSHRSYSCQVTHEGSTVEKTVAPTECS
notes: Fabs from HCP-LCE; effector-silenced IgG1 LALA; also called scFv(VH)-IgG1(H)-scFv2
On-cell affinity [11]: 12.3 nM | Kd [17]: 2.71 nM | Kd [12]: 130 nM | Kd [13]: 271 nM | Q2 (FITC+/PE+) % of events [15]: 16.5%

B5: K(αCD3ε)+H(αIL-6R) TriTECM (bispecific antibody)
heavy 1: not shown
heavy 2: B4 heavy 2
light: B4 light
notes: Fabs from HCP-LCE; effector-silenced IgG1 LALA; also called IgG1(H)-scFv2
On-cell affinity [11]: 21.2 nM | Kd [17]: 1.8 nM | Kd [13]: 172 nM | Q2 (FITC+/PE+) % of events [15]: 12.2%

Continued by falling Kd [13], values first:

binding result [10]: no binding | On-cell affinity [11]: 1.82 nM | Kd [12]: 108 nM | Kd [13]: 236 nM | binding result [14]: no binding (tested: 200 nM) | Q2 (FITC+/PE+) % of events [15]: 15%
B2: (αCD3ε)K+H (bispecific antibody)
heavy 1: not shown
heavy 2: B1 VH
light: B4 light
notes: Control variant with anti-CD3ε scFv fused to the N-terminus of the VH of the knob chain; not shown: CH1 and Knob-Fc (IgG1 LALA) with Twin-StrepII tag; CH1 and Hole-Fc (IgG1 LALA) with His6 tag

binding result [10]: no binding | On-cell affinity [11]: 2.5 nM | Kd [12]: 92.9 nM | Kd [13]: 173 nM | binding result [14]: no binding (tested: 200 nM) | binding result [16]: no binding | Q2 (FITC+/PE+) % of events [15]: 14%
B3: K+H (parental two-in-one antibody in Knob-into-Hole, effector-silenced LALA IgG1 format) (bispecific antibody, V domains shown)
VH: B1 VH
VL: B1 VL
notes: HCP-LCE Fabs on IgG1 LALA Knob-into-Hole Fc; also called parental K+H antibody
